Biological target: FvMYB1-GST (woodland strawberry (Fragaria vesca))
Assay: pull-down; FvSTOP1-His and FvbHLH33-His incubated together with FvMYB1-GST; detection with anti-His, bands quantified with ImageJ against the incubation alone

Row | Substance | binding strength with FvbHLH33-His present, against incubation alone (ImageJ) [times] | binding strength with FvSTOP1-His present, against incubation alone (ImageJ) [times]
1 | FvSTOP1-His (natural protein) | 0.31 | –
2 | FvbHLH33-His (natural protein) | – | 0.54
